Laboratory results from US20050064507A1, “Determining kinase specificity” (priority 2003, published 2005).

Target: T1, PKC-theta (Homo sapiens, UniProt Q04759)
T1 construct: His-tag; made in house; host or cells: baculovirus-infected Sf9 cells
Assay: In vitro kinase assay: peptide phosphorylation by PKC-theta
Format: biochemical
Procedure, shortened: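 Recombinant human PKC-theta, expressed in baculovirus-infected Sf9 cells and purified on a nickel chelating column, was incubated with biotinylated peptides, 100 μM ATP containing ^32P-gamma ATP, and PKC buffer with CaCl2, MgCl2, phosphatidyl serine and PMA at 30° C. Reactions were stopped with ATP/EDTA. Peptides were captured on streptavidin-coated plates, and phosphorylation was normalized to the best substrate.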

T1 sequence (Q04759 whole entry): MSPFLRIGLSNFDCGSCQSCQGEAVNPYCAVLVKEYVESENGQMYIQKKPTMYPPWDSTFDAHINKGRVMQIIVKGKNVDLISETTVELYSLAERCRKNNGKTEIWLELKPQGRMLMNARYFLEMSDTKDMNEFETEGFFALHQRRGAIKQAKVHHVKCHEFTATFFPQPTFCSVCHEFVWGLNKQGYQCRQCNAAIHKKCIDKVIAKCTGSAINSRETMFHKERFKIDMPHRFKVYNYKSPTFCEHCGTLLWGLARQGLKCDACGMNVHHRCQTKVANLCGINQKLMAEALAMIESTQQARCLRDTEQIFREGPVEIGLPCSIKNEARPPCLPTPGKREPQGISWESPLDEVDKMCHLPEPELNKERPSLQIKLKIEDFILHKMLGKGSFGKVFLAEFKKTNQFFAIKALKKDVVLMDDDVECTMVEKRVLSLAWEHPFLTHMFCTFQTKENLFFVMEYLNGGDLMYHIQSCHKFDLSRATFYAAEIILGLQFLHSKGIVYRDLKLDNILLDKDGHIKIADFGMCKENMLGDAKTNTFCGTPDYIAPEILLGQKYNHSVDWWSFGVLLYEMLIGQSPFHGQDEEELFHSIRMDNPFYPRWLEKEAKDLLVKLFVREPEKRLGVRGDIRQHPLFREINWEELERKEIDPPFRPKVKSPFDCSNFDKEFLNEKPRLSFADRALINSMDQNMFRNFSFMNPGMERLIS

Substance | phosphorylation by PKC theta (peptide concentration 1 uM) | phosphorylation by PKC theta (peptide concentration 10 uM)
155 (RWDKRRWRKIPKRPGSVHRT) [compound 155] | 23 | 26
156 (SAQITIPKDGQKRKKSLRKK) [compound 156] | 18 | 23
157 (PSPSNETPKKKKKRFSFKKS) [compound 157] | 20 | 23
158 (VQMTWSYPDEKNKRASVRRR) [compound 158] | 19 | 23
159 (LYARLARAYRRSQRASFKRA) [compound 159] | 21 | 17
160 (PFEVVWYKDKRQLRSSKKYK) [compound 160] | 19 | 25
161 (KYKAFIRIPIPTRRHTFRRQ) [compound 161] | 19 | 23
162 (KKKFSFKKPFKLSGLSFKRN) [compound 162] | 14 | 13
163 (PPRTPGWHQLQPRRVSFRGE) [compound 163] | 14 | 11
164 (TEGKMARVAWKGKRRSKARK) [compound 164] | 24 | 20
165 (TEEKSKKRKKKHRKNSRKHK) [compound 165] | 16 | 14
166 (MAQIERGEARIQRRISIKKA) [compound 166] | 13 | 13
167 (GLPAPGEDKSIYRRGSRRWR) [compound 167] | 12 | 14
